According to doi:10.1101/2020.11.04.368480:

Target: light chain of the anti-IL8 IgG1 mAb of the CHO DP-12 cell line
Test: SEC + native MS

**Q.** “light chain of the anti-IL8 IgG1 mAb of the CHO DP-12 cell line (antibody)” was tested. Which stoichiometry N did it give?
**A.** 2
